Residue numbers refer to the chain shown, from its start.
T1: mouse CD47-Fc (mouse, UniProt Q61735 19-140, limits assumed)
T1 construct: not shown: Fc part; not described
T1 sequence (looked up): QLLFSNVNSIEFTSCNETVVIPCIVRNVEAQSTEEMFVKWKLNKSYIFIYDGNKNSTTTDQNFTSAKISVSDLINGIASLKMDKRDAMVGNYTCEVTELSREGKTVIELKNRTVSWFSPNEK

B1: ADI-29337 Fab fragment (Fab, V domains shown)
VH: QVQLQESGPGLVKPSETLSLTCTVSGGSINHYYWSWIRQPPGKGLEWIGAIYYSGSTRYNPSLKSRVTISVDTSKNQFSLKLSSVTAADTAVYYCARGKSAFDPWGQGTLVTVSS
VL: DIQMTQSPSSVSASVGDRVTITCRASQGISRWLAWYQQKPGKAPKLLIYAASSLQSGVPSRFSGSGSGTDFTLTISSLQPEDFATYYCQQADLHPPLTFGGGTKVEIKR
B2: ADI-29342 Fab fragment (Fab, V domains shown)
VH: B1 VH with N30M, A50Y, R58N, S100T, A101G, F102S, D103A, P104A
VL: DIQMTQSPSSVSASVGDRVTITCRASQGISRWLAWYQQKPGKAPKLLIYAASSLQSGVPSRFSGSGSGTDFTLTISSLQPEDFATYYCQQTVSFPITFGGGTKVEIKR
B3: ADI-29345 Fab fragment (Fab, V domains shown)
VH: B1 VH with N30S, A50Y, S56V, R58T, S100T, A101G, F102S, D103T, P104A
VL: B2 VL
B4: ADI-29347 Fab fragment (Fab, V domains shown)
VH: QVQLQESGPGLVKPSETLSLTCTVSGGSIANYYWSWIRQPPGKGLEWIGYTYFSGSTNYNPSLKSRVTISVDTSKNQFSLKLSSVTAADTAVYYCARGKTGSAAWGQGTLVTVSS
VL: B2 VL
notes: also called ADI-29347 (Fab form)
B5: ADI-29342 (antibody, human IgG1, kappa, V domains shown)
VH: B4 VH with A30M, N31H, T51I, F53Y
VL: B2 VL
notes: Full-length IgG1 kappa expressed in yeast, purified by Protein A
B6: ADI-29345 (antibody, human IgG1, kappa, V domains shown)
VH: B4 VH with A30S, N31H, T51I, F53Y, S56V, N58T, A103T
VL: B2 VL
notes: as for B5
B7: ADI-29347 (antibody, human IgG1, kappa, V domains shown)
VH: B4 VH
VL: B2 VL
notes: as for B5
B8: ADI-29337 (antibody, human IgG1, kappa, V domains shown)
VH: B1 VH
VL: B1 VL
notes: as for B5
B9: ADI-29338 (antibody, human IgG1, kappa, V domains shown)
VH: B1 VH with N30S, H31S, A50T
VL: B1 VL
notes: as for B5
B10: ADI-26655 Fab fragment (Fab, V domains shown)
VH: B1 VH with N30S, H31S, A50Y, R58T, G98K, S100R, A101F, P104L, L110T
VL: not shown
notes: also called ADI-26655 (Fab form)
B11: ADI-29350 Fab fragment (Fab, V domains shown)
VH: B1 VH with N30E, A50Y, S56F, R58E, G98K, S100R, A101F, P104L, L110T
VL: not shown
notes: also called ADI-29350 (Fab form)
B12: ADI-26655 (antibody, human IgG1, kappa, V domains shown)
VH: B1 VH with N30S, H31S, A50Y, R58T, G98K, S100R, A101F, P104L, L110T
VL: not shown
notes: as for B5
B13: ADI-29350 (antibody, human IgG1, kappa, V domains shown)
VH: B1 VH with N30E, A50Y, S56F, R58E, G98K, S100R, A101F, P104L, L110T
VL: not shown
notes: as for B5
B14: ADI-26660 Fab fragment (Fab, V domains shown)
VH: B1 VH with N30S, H31S, A50S, R58N, G98K, K99Q, S100K, A101H, P104I, L110M
VL: B2 VL with R31S, T91V, V92N, S93H, F94H, I96W
notes: also called ADI-26660 (Fab form)
B15: ADI-26660 (antibody, human IgG1, kappa, V domains shown)
VH: B1 VH with N30S, H31S, A50S, R58N, G98K, K99Q, S100K, A101H, P104I, L110M
VL: B2 VL with R31S, T91V, V92N, S93H, F94H, I96W
notes: as for B5
B16: Hu5F9 (antibody, V domains shown)
VH: QVQLVQSGAEVKKPGASVKVSCKASGYTFTNYNMHWVRQAPGQRLEWMGTIYPGNDDTSYNQKFKDRVTITADTSASTAYMELSSLRSEDTAVYYCARGGYRAMDYWGQGTLVTVSS
VL: DIVMTQSPLSLPVTPGEPASISCRSSQSIVYSNGNTYLGWYLQKPGQSPQLLIYKVSNRFSGVPDRFSGSGSGTDFTLKISRVEAEDVGVYYCFQGSHVPYTFGQGTKLEIKR

What was measured:
[1] = molecular target: T2, human CD47-Fc (human, UniProt Q08722 19-139); test: BLI (ForteBio), human CD47-Fc on AHQ tip, Fab in solution 100 nM, monovalent
T2 construct: also called hCD47; not shown: Fc part

[2] = molecular target: T3, human CD47 overexpressed on CHO cells (human, UniProt Q08722 19-292); test: flow cytometry on CHO-hCD47 cells, PE anti-human IgG, MFI curve
T3 construct: CHO cells transfected with pCHO1.0 carrying human CD47 cDNA (Sino Biological); also called hCD47; CHO-hCD47 cells

[3] = molecular target: T1, mouse CD47-Fc; test: BLI (ForteBio), antibody on AHQ tip, mouse CD47-Fc in solution, bivalent
[4] = molecular target: T3, human CD47 overexpressed on CHO cells; test: flow cytometry competition on CHO-hCD47 cells against 200 nM mouse Fc-labeled SIRPα
[5] = molecular target: T2, human CD47-Fc; test: BLI (ForteBio), antibody on AHQ tip, human CD47-Fc in solution 100 nM, bivalent
[6] = molecular target: T4, cynomolgus monkey CD47-Fc (cynomolgus monkey, UniProt A0A2K5X523 19-139); test: BLI (ForteBio), antibody on AHQ tip, cynomolgus monkey CD47-Fc in solution 100 nM, bivalent
T4 construct: not shown: Fc part; not described

[7] = molecular target: T1, mouse CD47-Fc; test: BLI (ForteBio), antibody on AHQ tip, mouse CD47-Fc in solution 100 nM, bivalent

Binder | Kd [1] [nM] | EC50 [2] [nM] | binding result [3] | IC50 [4] [nM] | Kd [5] [nM] | other results
B1 | 2.2 |  |  |  |  | 
B2 | 11.7 |  |  |  |  | 
B3 | 2.89 |  |  |  |  | 
B4 | 11.3 |  |  |  |  | 
B5 |  | 2.74 | no binding (tested: 100 nM) | 2.69 | 0.486 | 
B6 |  | 1.5 | no binding (tested: 100 nM) | 2.75 | 0.403 | 
B7 |  | 1.81 | no binding (tested: 100 nM) | 2.16 | 0.71 | Kd [6]: 0.562 nM
B8 |  |  |  |  | 0.404 | Kd [7]: 18.7 nM; Kd [6]: 0.554 nM
B9 |  | 1.57 |  | 3.14 |  | 
B10 | 46.3 |  |  |  |  | 
B11 | 5.04 |  |  |  |  | 
B12 |  | 7.65 | no binding (tested: 100 nM) | 38.1 | 0.849 | 
B13 |  | 4.42 | no binding (tested: 100 nM) | 10.5 | 0.451 | 
B14 | 130 |  |  |  |  | 
B15 |  | 5.74 | no binding (tested: 100 nM) | 16.7 | 1.35 | 
B16 |  |  |  |  |  | Kd [7]: 12.7 nM

From patent US20200377593A1 (Innovent, published 2020)
